Source: article doi:10.1101/2020.05.01.070730 (bioRxiv, 2020)

Molecular target: T1, MutS E. coli (Escherichia coli, UniProt P23909 1-853)
T1 sequence: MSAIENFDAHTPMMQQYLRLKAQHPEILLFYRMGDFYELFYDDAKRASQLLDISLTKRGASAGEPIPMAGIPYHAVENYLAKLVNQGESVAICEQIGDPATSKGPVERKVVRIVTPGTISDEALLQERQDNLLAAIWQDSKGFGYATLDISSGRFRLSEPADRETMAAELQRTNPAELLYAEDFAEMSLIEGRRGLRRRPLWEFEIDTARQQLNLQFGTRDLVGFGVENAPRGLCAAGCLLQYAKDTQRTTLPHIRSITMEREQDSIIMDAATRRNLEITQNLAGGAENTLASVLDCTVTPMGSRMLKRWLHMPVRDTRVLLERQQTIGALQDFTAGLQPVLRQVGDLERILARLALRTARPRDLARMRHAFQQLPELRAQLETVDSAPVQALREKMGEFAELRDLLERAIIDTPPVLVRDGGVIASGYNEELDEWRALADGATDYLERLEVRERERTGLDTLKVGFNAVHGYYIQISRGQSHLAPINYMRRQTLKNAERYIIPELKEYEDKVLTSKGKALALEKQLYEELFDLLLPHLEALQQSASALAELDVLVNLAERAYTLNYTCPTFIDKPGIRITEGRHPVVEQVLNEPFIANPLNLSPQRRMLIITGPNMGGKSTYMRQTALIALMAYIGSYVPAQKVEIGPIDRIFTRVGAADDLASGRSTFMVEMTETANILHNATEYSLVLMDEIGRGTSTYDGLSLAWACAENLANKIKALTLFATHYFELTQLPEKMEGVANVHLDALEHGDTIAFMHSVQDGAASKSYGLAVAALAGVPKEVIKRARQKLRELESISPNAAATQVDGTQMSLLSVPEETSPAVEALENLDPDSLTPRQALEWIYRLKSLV
Experiment: native PAGE shift

B1: GT-pDNA (GT 8 nt from 3'-OH) (dsDNA)
DNA 1: ATGTGAATCAGTATGGTTGCTATCTGC
DNA 2: ATTTCCTTCAGCAGATAGTAACCATACTGATTCACAT
- binding result: binds
